Test [1] deals with human mast cell tryptase. Description: VIP assay for tryptase activity (Dns-VIP hydrolysis, HPLC/fluorescence, Dixon plot). Conditions: rate of loss of full-length VIP (1-28), 0.2 and 0.8 μM VIP, 37° C., read-out: Ki for inhibition of tryptase degradation of full length Dns-VIP. The test is classed as biochemical. The protocol:
In a typical assay, mast cell tryptase (12.5 pM) was incubated at 37° C. with dansyl-VIP (0.2-2 μM) in 100 mM Tris-HCl (pH 8.0) containing 1 μg/ml porcine mucosal heparin and 0.02% Triton X-100 in a final volume of 2.0 ml. To some samples, secretory leukocyte protease inhibitor was added to a final concentration of between 0 and 107 nM. The tryptase was pre-incubated with the SLPI, if added, for 5 min. at 37° C. before initiating the reaction by the addition of Dns-VIP. Aliquots (250 μl) were removed at 0, 2.5, 5.0, 7.5, 10, and 20 minutes to micro-vials (Sunbrokers) and the reaction terminated by the addition of TFA to a final concentration of 3% (v/v). The acidified reaction mixture was subjected to chromatography on a C-18 reverse-phase column (Vydac, 5 micron, 0.46×25 cm). Peptide hydrolysis was monitored by HPLC using a Hewlett Packard HP1090 unit complete with binary solvent delivery and autoinjection capability. Fluorescent detection (postcolumn) was performed with an inline Gilson Model 121 filter fluorimeter (excitation at 310-410 nm, emission at 480-520 nm). Dns-VIP fragments were separated from any unconverted Dns-VIP using a linear gradient of 69:31 (v/v) to 50:50 (v/v) C:D over 5.5 minutes (C=100 mM sodium acetate, pH 6.5 plus 0.2% sodium azide, D=80% ACN in water), with return to 69:31 (v/v) C:D at 6.5 minutes. Chromatography was performed at 1.0 ml/min at 25° C. […]

The test system of test [2] is tryptase. In words: GPK-AMC assay for tryptase activity (Dixon plot). Conditions: Table V footnote. The test is classed as biochemical, human. The procedure:
Tryptase activity was measured according to the procedure of Schwartz, et al., J. Biol. Chem., 261, 7372-7379 (1986) , with minor modifications, using Gly-Pro-Lys-Aminomethylcoumarin (GPK-AMC) as a substrate. The reaction was performed in assay buffer (0.1M Tris, pH 8.0, 10 μg/ml heparin) at room temperature in a 96-well microtiter plate (Perkin-Elmer, Norwalk, Conn.). The amount of coumarin produced by tryptase was determined by measuring the fluorescence (ex=372 nm, em=432 nm) on a Perkin-Elmer LS-50B fluorimeter equipped with a plate reader. 50 μl of tryptase (final concentration of 333 pM) was mixed with either 50 μl of the sample to be tested or with assay buffer and incubated for 5 min. at room temperature. […] The fluorescence intensity was measured every 5 minutes. For samples that were being tested for modulators of tryptase activity, the % inhibition for each fraction was determined by:
Inhibitory activity against tryptase and bovine trypsin was measured using Gly-Pro-Lys-aminomethylcoumarin as a substrate. […] The amount of coumarin produced was determined by measuring the fluorescence (ex=370 nm, em=432 nm) on a Perkin-Elmer LS-50B fluorimeter. […] The reaction was started by the addition of the substrate GPK-AMC (20 or 40 μM final) and the increase in fluorescence was measured over a 2 minute period. […]

The text below walks through data of patent US5633227A, “Secretory leukocyte protease inhibitor as an inhibitor of tryptase” (Miles, Inc., priority 1994, dated 1997).

Several values for one entry are separate records, joined by “and”; a condition that tells them apart may be missing. Equal entries are not always repeated. Where two headings read alike, the source gives them in different places.

B1: secretory leukocyte protease inhibitor (protein)
chain: SGKSFKAGVCPPKKSAQCLRYKKPECQSDWQCPGKKRCCPDTCGIKCLDPVDTPNPTRRKPGKCPVTYGQCLMLNPPNFCEMDGQCKRDLKCCMGMCGKSCVSPVKA
Turning to B1, the Ki in test [1] (listed as Full SLPI) was 8 nM; in test [1] it was 8 nM and ~8 nM. For the same molecule, the “Response in GPK-AMC tryptase assay” value in test [2] is on record as “biphasic response”.

Usually Ki stands for a dissociation constant, usually derived from enzyme kinetics or from competition with a known ligand.
